From the supplement of paper PMC6757056
± gives the standard deviation of the averaged measurements.

B1: library; a variant is named by its letters at N, in order (parent)
chain: GCUGUCACCGAGAAACUGUGAAGUAUAUCUUAAACCUGGGCACUUAAAAGAUAUAUGGAGUUAGUAGUGCAACCUGCUCGGUCUGAUGAGUCCNNNNNNGGACGAAACAGC

Assays:
[1] = variants of: B1; experiment: normalized RNA/DNA level without ligand (relative to sTRSVctl = 100) (log10 (% of sTRSVctl)); HEK293T; ligand: cyclic di-GMP (c-di-GMP-II aptamer); higher = less ribozyme self-cleavage, higher mRNA level; settings: reporter: mCherry (pCS4076), ligand present: no
Method in brief: (§1)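 Total RNA, extracted with EDTA 72 h after HEK293T cells were transfected with 4 µg per 6-well well of reporter-linked ribozyme switch library plasmids, was reverse-transcribed, amplified, barcoded and sequenced. Ligand, if used, was added 1 h before transfection. RNA level was derived from RNA reads divided by DNA reads and normalized to a spiked-in non-cleaving sequence or to the top sequences. This was multiplied by 100 and log10-transformed, with the top set of 25 sequences and a ≥100 DNA read minimum.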

[2] = variants of: B1; experiment: normalized RNA/DNA level with ligand (relative to sTRSVctl = 100) (log10 (% of sTRSVctl)); HEK293T; ligand: cyclic di-GMP (c-di-GMP-II aptamer); ligand concentration (+) RNA-Seq: 1 mM; higher = less ribozyme self-cleavage, higher mRNA level; settings: reporter: mCherry (pCS4076), ligand present: yes
Method in brief: as §1

| Variant | normalized RNA/DNA level without ligand (log10) [1] | normalized RNA/DNA level with ligand (log10) [2] |
| --- | --- | --- |
| GCCUCC | 1.71 ± 0.02 | 1.84 ± 0.091 |
| GCCUCU | 1.721 ± 0.017 | 1.87 ± 0.04 |
| GCCUCG | 1.761 ± 0.0043 | 1.892 ± 0.0091 |
| GCCUCA | 1.737 ± 0.0028 | 1.87 ± 0.068 |
| GCCUAC | 1.55 ± 0.059 | 1.72 ± 0.047 |
| GCCUAU | 1.662 ± 0.0027 | 1.85 ± 0.13 |
| GCCUAA | 1.59 ± 0.071 | 1.78 ± 0.055 |
| GCCUAG | 1.74 ± 0.068 | 1.86 ± 0.16 |
| UCCCAU | 1.71 ± 0.02 | 1.85 ± 0.16 |
| UCCCAA | 1.6799 ± 0.00075 | 1.84 ± 0.077 |
| UCCCAG | 1.79 ± 0.048 | 1.9 ± 0.089 |
| UCCCAC | 1.758 ± 0.0044 | 1.87 ± 0.097 |
| CCCCUC | 1.73 ± 0.0095 | 1.87 ± 0.079 |
| CCCGAG | 1.56 ± 0.065 | 1.76 ± 0.11 |
| CCCGAU | 1.64 ± 0.027 | 1.83 ± 0.12 |
| CCCGAC | 1.7 ± 0.018 | 1.81 ± 0.14 |
| GCCCCG | 1.799 ± 0.012 | 1.84 ± 0.086 |
| GCCCCC | 1.78 ± 0.026 | 1.88 ± 0.084 |
| ACCUAC | 1.7 ± 0.02 | 1.85 ± 0.075 |

| Variant | normalized RNA/DNA level without ligand (log10) [1] | normalized RNA/DNA level with ligand (log10) [2] |
| --- | --- | --- |
| ACCUAG | 1.64 ± 0.053 | 1.78 ± 0.086 |
| UCCGUC | 1.75 ± 0.018 | 1.9 ± 0.14 |
| UCCGUA | 1.51 ± 0.1 | 1.7 ± 0.084 |
| UCCGUG | 1.73 ± 0.033 | 1.85 ± 0.11 |
| UCCGUU | 1.6717 ± 0.00065 | 1.85 ± 0.12 |
| UCCCUA | 1.696 ± 0.014 | 1.84 ± 0.092 |
| UCCCUC | 1.78 ± 0.038 | 1.89 ± 0.14 |
| UCCCUU | 1.69 ± 0.056 | 1.86 ± 0.14 |
| GCCCGU | 1.73 ± 0.048 | 1.84 ± 0.14 |
| GCCCGC | 1.76 ± 0.04 | 1.86 ± 0.15 |
| GCCCGA | 1.62 ± 0.052 | 1.79 ± 0.079 |
| GCCUUA | 1.657 ± 0.0086 | 1.82 ± 0.1 |
| GCCUUG | 1.576 ± 0.007 | 1.81 ± 0.1 |
| GCCUUC | 1.61 ± 0.038 | 1.79 ± 0.099 |
| GCCUUU | 1.69 ± 0.051 | 1.88 ± 0.14 |
| ACCUGC | 1.71 ± 0.029 | 1.85 ± 0.076 |
| ACCUGG | 1.68 ± 0.081 | 1.88 ± 0.049 |
| ACCUGU | 1.72 ± 0.063 | 1.84 ± 0.13 |
| GCGCGC | 1.64 ± 0.07 | 1.8 ± 0.11 |

| Variant | normalized RNA/DNA level without ligand (log10) [1] | normalized RNA/DNA level with ligand (log10) [2] |
| --- | --- | --- |
| GCGCGU | 1.59 ± 0.1 | 1.75 ± 0.044 |
| GCGCGG | 1.796 ± 0.0029 | 1.87 ± 0.087 |
| CCCUUA | 1.47 ± 0.04 | 1.7 ± 0.15 |
| CCCUUC | 1.729 ± 0.0068 | 1.86 ± 0.082 |
| CCCUUU | 1.61 ± 0.053 | 1.83 ± 0.096 |
| CCCUUG | 1.643 ± 0.0095 | 1.81 ± 0.13 |
| CCGAGG | 1.624 ± 0.0052 | 1.8 ± 0.071 |
| CCGAGU | 1.63 ± 0.025 | 1.8 ± 0.13 |
| CCCCCU | 1.704 ± 0.0062 | 1.86 ± 0.13 |
| CCCCCG | 1.79 ± 0.027 | 1.84 ± 0.071 |
| CCCCCC | 1.82 ± 0.043 | 1.93 ± 0.12 |
| GCGAAA | 1.34 ± 0.099 | 1.56 ± 0.096 |
| GCGAAC | 1.28 ± 0.15 | 1.54 ± 0.052 |
| GCGAAG | 1.45 ± 0.068 | 1.63 ± 0.087 |
| ACCUUC | 1.74 ± 0.042 | 1.83 ± 0.11 |
| ACCUUA | 1.67 ± 0.015 | 1.79 ± 0.14 |
| ACCUUU | 1.63 ± 0.02 | 1.82 ± 0.081 |
| ACCUUG | 1.7 ± 0.065 | 1.81 ± 0.063 |
| UCCAUG | 1.67 ± 0.021 | 1.85 ± 0.15 |
